In patent EP3061768A1 (dated 2016):

Legend:
human IL-1 Beta (human) [1] = target: human IL-1 Beta (human) (UniProt P01584); test: cell-based or functional assay
human IL-1 Beta (human) [2] = target: human IL-1 Beta (human) (UniProt P01584); test: ELISA based competition assay; competitor: antagonistic reference mouse mAb (Diaclone)
human IL-1 Beta (human) [3] = target: human IL-1 Beta (human) (UniProt P01584); test: competition ELISA, periplasmic extract; competitor: coated mouse mAb (Diaclone); reduced signal means competition
neutravidin = target: T1, neutravidin (UniProt P02701 25-152); test: phage ELISA, crude phage extract, anti-M13-HRP
T1 construct: Control wells without biotinylated IL-1 Beta
T1 sequence (P02701 25-152): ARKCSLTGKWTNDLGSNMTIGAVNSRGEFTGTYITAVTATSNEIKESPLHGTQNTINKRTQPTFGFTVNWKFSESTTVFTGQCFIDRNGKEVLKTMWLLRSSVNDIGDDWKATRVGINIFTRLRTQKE

Chain of human IL-1 Beta (human) (P01584 117-269 limits assumed): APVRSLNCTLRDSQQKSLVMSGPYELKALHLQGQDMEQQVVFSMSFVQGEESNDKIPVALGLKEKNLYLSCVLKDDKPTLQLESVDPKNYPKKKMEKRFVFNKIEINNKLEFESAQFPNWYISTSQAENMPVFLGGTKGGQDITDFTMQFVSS

Binder	OD signal in the competition assay (human IL-1 Beta (human) [3])	binding result (neutravidin)	also measured
Fab 1C3 (Fab, part only; not given: lambda light chain, V domains shown, not shown: a dimerising Fc or GST) VH: EVQLVESGGGLVQPGGSLRLSCAASGFTFSSYWMYWVRQAPGKGLEWVSAINTGGGRTYYADSVKGRFTISRDNAKNTLYLQMNSLKSEDTAVYYCAKGTSADGSSWYVPADPYDYWGQGTQVTVSS	0.386 OD		IC50 in the bioassay (human IL-1 Beta (human) [1]): 3 µg/mL; concentration at which competition is seen (human IL-1 Beta (human) [2]): > 50 µg/mL
Fab 1A1 (Fab, part only; not given: lambda light chain, V domains shown, not shown: a dimerising Fc or GST) VH: EVQLVESGGGLVQPGGSLRLSCAASGFTFDDYAMSWVRQAPGKGLEWVSTISWNGGATYYAESMKGRFTISRDNAKNTLYLQMNSLKSEDTAVYYCAKPYYSDYVGVEYDYWGQGTQVTVSS	0.205 OD		IC50 in the bioassay (human IL-1 Beta (human) [1]): 10 µg/mL; IC50 (human IL-1 Beta (human) [2]): 12 µg/mL
Fab 1B3 (Fab, part only; not given: lambda light chain, V domains shown, not shown: a dimerising Fc or GST) VH: EVQLVQSGAELRNPGASVKVSCKASGYTFTSYYIDWVRQAPGQGLEWMGRIDPEDGGTKYAQKFQGRVTFTADTSTSTAYVELSSLRSEDTAVYYCARSGRYELDYWGQGTQVTVSS	0.444 OD		
Fab 1G1 (Fab, part only; not given: light chain, V domains shown, part only) VH: EVQLVQSGAELRNPGASVKVSCKASGYTFTSYYTDWVRQAPGQGLEWMGRIDPEDGDTKYAQKFQGRVTFTADTSTSTAYVELTSLRSEDTAVYYCLRSGAYELDYWGQGTQVTVSS	0.498 OD		
wt 1F2 gene3-Fab fusion on phage (Fab, V domains shown) VH: EVQLVESGGGLVQPGGSLRLSCAASGFTFSTYAMSWVRQAPGKGPEWVSGINTGGGSTGYADSVKGRFTISRDNAKNTLYLQMNSLKPEDTAVYYCAKDWMATTPWGQGTQVTVSS VL: QAVVTQEPSLSVSPGGTVTLTCGLSSGSVTTNNYPGWFQQTPGQAPRTLIYNTNNRHSGVPSRFSGSISGNKAALTITGAQPEDEADYYCALYMSSGSNNAVFGGGTHLTVLG		no binding	
safe variant 1F2 gene3-Fab fusion on phage (Fab, V domains shown, The text says 'partially humanized V lambda fused to human C lambda and CH1'; the result sentence speaks of back mutations in both VL and VH, so the safe VH is used; also called safe 1F2; partially humanized 1F2) VH: EVQLLESGGGLVQPGGSLRLSCAASGFTFSTYAMSWVRQAPGKGPEWVSGINTGGGSTGYADSVKGRFTISRDNSKNTLYLQMNSLRPEDTAVYYCAKDWMATTPWGQGTQVTVSS VL: QTVVTQEPSFSVSPGGTVTLTCGLSSGSVTTNNYPGWFQQTPGQAPRTLIYNTNNRHSGVPSRFSGSILGNKAALTITGAQADDESDYYCALYMSSGSNNAVFGGGTKLTVLG		no binding	
wt 1E2 gene3-Fab fusion on phage (Fab, V domains shown, crude phage extract; also called wt 1E2 (phage)) VH: EVQLVESGGGLVQPGGSLRLSCTASGFTFSNYWMYWVRQAPGKGLEWVSAINAAGSTYYADSVKGRFTISRDNAKNTLYLQMNSLQSEDTALYYCANLPRWGQGTQVTVSS VL: QTVVTQEPSLSVSPGGTVTLTCGLSSGSVTSGNYPGWYQQKPGQAPRTLIYNTNSRYSGVPNRFSGSISGNKAALTITGAQPEDEADYYCAVYIGSSSYPVVFGGGTHLTVLG		no binding	
safe variant 1E2 gene3-Fab fusion on phage (Fab, V domains shown, The text says 'partially humanized V lambda fused to human C lambda and CH1'; also called safe 1E2) VH: EVQLVESGGGLVQPGGSLRLSCAASGFTFSNYWMYWVRQAPGKGLEWVSAINAAGSTYYADSVKGRFTISRDNSKNTLYLQMNSLQSEDTAVYYCANLPRWGQGTQVTVSS VL: QTVVTQEPSFSVSPGGTVTLTCGLSSGSVTSGNYPGWYQQKPGQAPRTLIYNTNSRSSGVPDRFSGSILGNKAALTITGAQPDDESDYYCAVYIGSSSYPVVFGGGTHLTVLG		no binding	
hum 1F2 gene3-Fab fusion on phage (Fab, V domains shown, also called fully humanized 1F2) VH: EVQLLESGGGLVQPGGSLRLSCAASGFTFSTYAMSWVRQAPGKGLEWVSGINTGGGSTGYADSVKGRFTISRDNSKNTLYLQMNSLRAEDTAVYYCAKDWMATTPWGQGTLVTVSS VL: QTVVTQEPSFSVSPGGTVTLTCGLSSGSVTTNNYPGWYQQTPGQAPRTLIYNTNNRSSGVPDRFSGSILGNKAALTITGAQADDESDYYCALYMSSGSNNAVFGGGTKLTVLG		no binding	
hum 1E2 gene3-Fab fusion on phage (Fab, V domains shown, also called fully humanized 1E2) VH: EVQLVESGGGLVQPGGSLRLSCAASGFTFSNYWMYWVRQAPGKGLEWVSAINAAGSTYYADSVKGRFTISRDNSKNTLYLQMNSLRAEDTAVYYCANLPRWGQGTLVTVSS VL: QTVVTQEPSFSVSPGGTVTLTCGLSSGSVTSGNYPGWYQQTPGQAPRTLIYNTNSRSSGVPDRFSGSILGNKAALTITGAQADDESDYYCAVYIGSSSYPVVFGGGTKLTVLG		no binding	
